The source of these data is publication PMC9515098, “Structural basis for the activity regulation of a potassium channel AKT1 from Arabidopsis” (Nature Communications, 2022).

Data set [1] deals with the molecule itself. Kind of data set: cryo-EM structure; single-particle cryo-EM of the purified channel from Sf9 cells; 25 mM Tris-HCl pH 7.4, 150 mM KCl, 0.1% digitonin.
Data set [2] deals with the molecule itself. Put plainly: cryo-EM structure; single-particle cryo-EM of AKT1 co-expressed with CIPK23 and CBL1 in HEK293 cells; 0.08% digitonin, 0.5 mM CaCl2, 5 mM MnCl2, 1 mM ATP, 1 mM sodium orthovanadate; map at about 11 Å.
Data set [3] deals with the molecule itself. Kind of data set: cryo-EM structure; cryo-EM, 2D classification only (preliminary analysis); no map or model reported.

B1: Arabidopsis thaliana potassium channel AKT1, wild type (Flag-tagged, from Sf9 cells) (natural protein)
chain: not shown
notes: Potassium channel AKT1, Arabidopsis thaliana, UniProt Q38998; Homotetramer in the cryo-EM structure; also called WT AKT1; AKT1 WT
By stoichiometry N is commonly meant the number of molecules, sites or subunits per partner or assembly. Turning to B1, the “stoichiometry N” value in data set [1] was determined as 4.

B2: Phosphorylated AKT1 (AKT1 co-expressed with CIPK23 and CBL1 in HEK293 cells) (natural protein)
chain: not shown
modifications: phosphoserine at Ser26 and Ser338 (found by mass spectrometry after co-expression with CIPK23 and CBL1)
notes: Potassium channel AKT1, Arabidopsis thaliana, UniProt Q38998
With B2, the binding result in data set [2] was “binds”.

B3: AKT1 Asp379Ala, constitutively-active variant (Flag-tagged, from Sf9 cells) (natural protein)
chain: not shown
notes: Potassium channel AKT1, Arabidopsis thaliana, UniProt Q38998, with the point mutation Asp379Ala; Two cryo-EM classes (4-fold and 2-fold symmetric cytoplasmic domain); also called AKT1-D379A; constitutively-active mutant; source: Sf9 insect cells (Bac-to-bac baculovirus), purified by the same protocol as AKT1
As to B3, the binding result in data set [1] is “binds”.

B4: AKT1_(16-857), AKT1 lacking the N-terminal 15 residues (domain or fragment)
chain: not shown
notes: source: purified
In the case of B4, the binding result in data set [3] was “binds”.
